# Measurements reported in article PMC10477855.
# Biological target: UBR5 (UniProt O95071)
# Assay: co-IP and immunoblot, transfected cells
# Settings: reference: ACSL4 wild type; sites S447
substance,measurement,value
ACSL4 (from UniProt O60488) ACSL4 S447A,binding against the reference,lost
